Some targets named below: HLA-A*11:01; HLA-A*68:01; HLA-A*03:01; HLA-A*33:01; HLA-A*31:01.
What all share (assay): IEDB peptide-MHC binding, purified MHC/competitive/radioactivity; filed as Kd, often an IC50 or EC50 that approximates it; ≥ and ≤ were set here for values at or beyond the usual limits of such assays
The mark [1] stands for this setting: source organism: Vaccinia virus WR.
[2] abbreviates: source organism: SARS coronavirus Tor2.
Setting [3] is: source organism: Mammarenavirus guanaritoense.
The mark [4] stands for this setting: source organism: Mammarenavirus juninense.
[5] abbreviates: source organism: Vaccinia virus Copenhagen.

pKd: −log10 of the molar value.

Here are results for 24 sequences from the Immune Epitope Database (IEDB).

In the case of ITTDDLVKSY, the pKd with HLA-A*11:01 (setting [1]) was 4.96; with HLA-A*68:01 (setting [1]), 5.99; in the assay with HLA-A*03:01 (setting [1]), at most 4.15; with HLA-A*33:01 (setting [1]) it was at most 4.15; in the assay with HLA-A*31:01 (setting [1]), at most 4.15.

In the case of KFGKNHIHR, the pKd with HLA-A*11:01 (setting [1]) was at most 4.45; in the assay with HLA-A*68:01 (setting [1]), at most 4.31; with HLA-A*03:01 (setting [1]) it was 4.91; with HLA-A*33:01 (setting [1]), 5.27; with HLA-A*31:01 (setting [1]), 8.35.

With KFTILEYLY, the pKd in the assay with HLA-A*11:01 (setting [1]) was 5.66; with HLA-A*68:01 (setting [1]) it was 6.09; in the assay with HLA-A*03:01 (setting [1]), 5.15; with HLA-A*33:01 (setting [1]) it was 5.04; with HLA-A*31:01 (setting [1]), 5.99.

For KFVFPLNSK, the negative-log Kd (pKd) with HLA-A*11:01 (setting [2]) was 5.90; in the assay with HLA-A*68:01 (setting [2]), 5.06; with HLA-A*03:01 (setting [2]) it was 6.77; with HLA-A*33:01 (setting [2]) it was at most 4.27; with HLA-A*31:01 (setting [2]), 7.13.

For the sequence KIVNGVLSR, the pKd with HLA-A*11:01 (setting [1]) is 7.05; with HLA-A*68:01 (setting [1]) it was 5.69; in the assay with HLA-A*03:01 (setting [1]), 6.48; with HLA-A*33:01 (setting [1]), 5.15; with HLA-A*31:01 (setting [1]), 5.85.

Regarding KSDNIINIGY, the pKd with HLA-A*11:01 (setting [1]) was 6.85; with HLA-A*68:01 (setting [1]), 5.53; in the assay with HLA-A*03:01 (setting [1]), 6.97; with HLA-A*33:01 (setting [1]), at most 4.31; with HLA-A*31:01 (setting [1]), 5.41.

For KSKSFNHVLK, the pKd was 7.67 with HLA-A*11:01 (setting [2]); 5.44 with HLA-A*68:01 (setting [2]); 8.76 with HLA-A*03:01 (setting [2]); at most 4.15 in the assay with HLA-A*33:01 (setting [2]); 8.18 with HLA-A*31:01 (setting [2]).

For the sequence KTAVNMLTH, the negative logarithm of the Kd (pKd) in the assay with HLA-A*11:01 (setting [3]) was 6.67; with HLA-A*68:01 (setting [3]) it was at most 4.35; with HLA-A*03:01 (setting [3]) it was 8.00; with HLA-A*33:01 (setting [3]), at most 4.11; in the assay with HLA-A*31:01 (setting [3]) it was 7.34.

On to KTVQFCDAMR, for which the pKd in the assay with HLA-A*11:01 (setting [2]) is 6.57; with HLA-A*68:01 (setting [2]), 7.05; in the assay with HLA-A*03:01 (setting [2]), 5.75; in the assay with HLA-A*33:01 (setting [2]) it was 5.82; with HLA-A*31:01 (setting [2]), 8.06.

Turning to KVNSTLEQY, the pKd with HLA-A*11:01 (setting [2]) is 6.35; with HLA-A*68:01 (setting [2]) it was 6.02; with HLA-A*03:01 (setting [2]), 7.23; with HLA-A*33:01 (setting [2]) it was at most 4.30; in the assay with HLA-A*31:01 (setting [2]), 5.59.

For the sequence LIKFISDNKK, the pKd is 6.00 in the assay with HLA-A*11:01 (setting [1]); 7.33 with HLA-A*68:01 (setting [1]); 6.85 in the assay with HLA-A*03:01 (setting [1]); at most 5.00 in the assay with HLA-A*33:01 (setting [1]); 7.37 in the assay with HLA-A*31:01 (setting [1]).

With LLRHYYNKR, the pKd is 6.08 with HLA-A*11:01 (setting [1]); 5.60 in the assay with HLA-A*68:01 (setting [1]); 5.52 with HLA-A*03:01 (setting [1]); 7.29 in the assay with HLA-A*33:01 (setting [1]); 8.77 in the assay with HLA-A*31:01 (setting [1]).

Take LTILDDNLY: the pKd in the assay with HLA-A*11:01 (setting [1]) is 5.49; with HLA-A*68:01 (setting [1]) it was 6.42; with HLA-A*03:01 (setting [1]), 4.95; in the assay with HLA-A*33:01 (setting [1]) it was at most 4.16; with HLA-A*31:01 (setting [1]), at most 4.50.

Regarding LVLLILMTAR, the pKd with HLA-A*11:01 (setting [2]) is 5.06; in the assay with HLA-A*68:01 (setting [2]) it was 5.17; with HLA-A*03:01 (setting [2]), 5.42; with HLA-A*33:01 (setting [2]), 5.26; in the assay with HLA-A*31:01 (setting [2]) it was 6.04.

For the sequence MTLVPVLEK, the pKd with HLA-A*11:01 (setting [1]) was 8.18; with HLA-A*68:01 (setting [1]), 8.24; with HLA-A*03:01 (setting [1]), 7.60; with HLA-A*33:01 (setting [1]), 5.88; with HLA-A*31:01 (setting [1]), 7.01.

For the sequence MVDELVTRK, the pKd was 6.79 in the assay with HLA-A*11:01 (setting [1]); 6.10 with HLA-A*68:01 (setting [1]); 7.16 in the assay with HLA-A*03:01 (setting [1]); 5.69 in the assay with HLA-A*33:01 (setting [1]); 5.40 with HLA-A*31:01 (setting [1]).

As for MVGLFSNNPH, the pKd in the assay with HLA-A*11:01 (setting [4]) was 5.22; with HLA-A*68:01 (setting [4]) it was 7.30; with HLA-A*03:01 (setting [4]), at most 4.52; with HLA-A*33:01 (setting [4]) it was 6.40; in the assay with HLA-A*31:01 (setting [4]), 6.97.

For the sequence NILGGVLHTK, the negative logarithm of the Kd (pKd) with HLA-A*11:01 (setting [1]) was 7.43; in the assay with HLA-A*68:01 (setting [1]), 7.70; in the assay with HLA-A*03:01 (setting [1]) it was 7.41; with HLA-A*33:01 (setting [1]), 5.86; in the assay with HLA-A*31:01 (setting [1]), 5.74.

As for NKQYIHCFRK, the pKd in the assay with HLA-A*11:01 (setting [4]) was 6.19; in the assay with HLA-A*68:01 (setting [4]) it was 5.82; in the assay with HLA-A*03:01 (setting [4]) it was 6.01; with HLA-A*33:01 (setting [4]), 4.76; with HLA-A*31:01 (setting [4]) it was 6.89.

Regarding NMRDLIVTFR, the pKd was 4.83 with HLA-A*11:01 (setting [1]); 7.94 with HLA-A*68:01 (setting [1]); 4.98 with HLA-A*03:01 (setting [1]); 9.25 in the assay with HLA-A*33:01 (setting [1]); 8.94 with HLA-A*31:01 (setting [1]).

On to NQVIVNNLDK, for which the pKd in the assay with HLA-A*11:01 (setting [2]) was 4.88; with HLA-A*68:01 (setting [2]) it was 4.87; in the assay with HLA-A*03:01 (setting [2]), at most 4.54; with HLA-A*33:01 (setting [2]), at most 4.15; with HLA-A*31:01 (setting [2]) it was at most 4.39.

As for NTIVFGIYK, the pKd in the assay with HLA-A*11:01 (setting [5]) is 5.97; in the assay with HLA-A*68:01 (setting [5]) it was 5.95; with HLA-A*03:01 (setting [5]) it was at most 4.54; with HLA-A*33:01 (setting [5]), at most 4.11; with HLA-A*31:01 (setting [5]), at most 4.48.

In the case of PFKVINLPK, the pKd with HLA-A*11:01 (setting [1]) is 6.18; with HLA-A*68:01 (setting [1]), 4.81; in the assay with HLA-A*03:01 (setting [1]), 5.02; in the assay with HLA-A*33:01 (setting [1]), at most 4.11; in the assay with HLA-A*31:01 (setting [1]), 5.20.

As for PLFDFVNEKY, the pKd was at most 4.16 with HLA-A*11:01 (setting [1]); at most 4.15 with HLA-A*68:01 (setting [1]); at most 4.15 in the assay with HLA-A*03:01 (setting [1]); at most 4.15 with HLA-A*33:01 (setting [1]); at most 4.57 with HLA-A*31:01 (setting [1]).
